Results: US20220332839A1, “USE OF PRG4 TO TREAT CANCER” (Lubris LLC, priority 2019, published 2022)

Legend:
[1] = biological target: T1, CD44-IgG1Fc (Homo sapiens, UniProt P16070); assay: Direct ELISA: binding of coated macromolecules to CD44-IgG1Fc
T1 construct: purchased R & D systems
Procedure: High-binding microtiter plates (Corning, Sigma Aldrich, USA) were coated with rhPRG4 (Mr≅240 KDa), high molecular weight HA (HMW HA; Mr≅1,500 KDa) (R & D System, USA), medium molecular weight HA (MMW HA; Mr≅′300KDa) (R & D System) and vitronectin KDa) (Sigma Aldrich) at 400 μg/mL in PBS buffer (100 μL per well) overnight at 4° C. rhPRG4 is a full-length product produced by CHO-M cells (Lubris, Framingham, Mass., USA). Following washing with PBS+0.1% Tween 20, wells were blocked with 2% bovine serum albumin (BSA; 300 μL per well) for at least 2 hours at room temperature. CD44-IgG1Fc (R & D systems) or IgG1Fc (R & D systems), each at 1 μg/mL (100 μl per well), were added to the plate and incubated for 60 min at room temperature. Following washing with PBS+0.1% tween 20, anti-IgG1Fc-HRP (Sigma Aldrich) was added at 1:10,000 dilution (100 μL per well) and incubated for 60 min at room temp. Following washing with PBS+0.1% tween 20, the assay was developed using 1-step Turbo TMB ELISA reagent (ThermoScientific, USA) and absorbance was measured at 450 nm. The data represents an average of 4 independent assays, each with triplicate wells per group.
The concentration-dependent binding of rhPRG4, HMW HA and MMW HA to CD44 was performed by coating microtiter plates with 400, 200, 100, 20, 4, 2 and 0.1 μg/mL of the macromolecules. The assay was performed as described above. The absorbance values in the IgG1Fc wells were subtracted from the absorbance values in the CD44 IgG1Fc wells and the corrected CD44 IgG1Fc absorbance values were normalized to those of the 400 μg/mL rhPRG4 group and data was expressed as percentage binding to CD44. The concentration-dependent binding of rhPRG4, HMW HA and MMW HA to recombinant CD44 is depicted in FIG. 1B. […] The data represents an average of 4 independent assays, each with triplicate wells per group.
rhPRG4 was digested using sialidase A (Prozyme, USA), O-glycosidase (New England Biolabs, USA) or a combination of sialidase A and O-glycosidase for 16 hours at 37° C. In the sialidase A digestion, 12 μL of the enzyme (1U/200 μL) was added to rhPRG4 in a total reaction volume of 180 μL and a rhPRG4 final concentration of 300 μg/mL. In the O-glycosidase digestion, 4.8 μL of the enzyme (40million units/mL) was added to rhPRG4 in a total reaction volume of 180 μL and a rhPRG4 final concentration of 300 μg/mL under non-denaturing conditions. In the sialidase-A and O-glycosidase digestion, the enzymes were used in volumes identical to the ones stated above and incubated with rhPRG4 in a total reaction volume and final rhPRG4 concentration as stated above. The effect of sialidase-A and O-glycosidase digestions on rhPRG4 apparent molecular weight was determined by SDS-PAGE using 4-12% Bis-Tris gel (NuPage, life technologies, USA). A total of 20 μL of rhPRG4 or enzyme-digested rhPRG4 was run under reducing conditions ([…] for 60 min) followed by staining using Gelcode Blue Stain (Thermo Scientific, USA). Binding of enzymatically digested rhPRG4 to CD44 was compared to undigested rhPRG4 using the direct ELISA approach described above and using an rhPRG4 coating concentration of 30 μg/mL. Data represents the average of 4 independent experiments, each with triplicate wells per group.

[2] = tested on: HLE and HLF cells; assay: HCC cell adhesion assay on coated wells; assay type: cell-based, human; conditions: CD44-shRNA vs control-shRNA; 30 minutes
Excerpt: (§1) Stable CD44 silencing: HLE and HLF cell lines were transduced with lentiviral particles carrying control non-targeting (V), or specific CD44-targeting shRNA sequences (A to D), and selected with puromycin dihydrochloride (Thermo Fisher Scientific) to obtain stable CD44 silencing, according to manufacturer instructions (OriGene Technologies, Inc., Rockville, Md. 20850, USA). Control-shRNA sequence (V) and CD44-shRNA sequence B were used in all the experiments involving CD44 downregulation.
Adhesion assay: Diluted in 100 μl of serum free DMEM medium (+0.5% BSA), 50,000 cells, were seeded onto uncoated, rhPRG4, or fibronectin (FN)-coated wells of a 96-well plate, and then incubated at 37° C., 5% CO2 for 30 minutes. An equal volume of 4% PFA (pH 7.2 in PBS) was added and the plates were immediately flicked for a few seconds to allow mixing. Thirty minutes later, the medium was removed and the adherent cells were stained with crystal violet for 10 min. After abundant washing with tap water and distilled water the stained cells were allowed to dry out, and then they were solubilized with 100 μl of 1% sodium dodecyl sulphate in water. Absorbance was read at 595 nm and proportionally related to the number of adhered cells.

[3] = tested on: HLE and HLF cells; assay: HCC trans-well migration assay on fibronectin; assay type: cell-based, human; conditions: soluble rhPRG4 25 μg/ml; 16 hours
Excerpt: as §1
Trans-well migration assay: The assay was performed as previously described. (Dituri et al., PLoS One 2013. doi:10.1371/journal.pone.0067109). Briefly, 15,000 cells were loaded onto the top chamber of the trans-well, whose membrane was previously coated with fibronectin on the lower surface, and left to migrate for 16 hours in the presence/absence of rhPRG4 (25 μg/ml) diluted in serum-free DMEM medium (+0.5% BSA) in the lower chamber. The cells were then paraformaldehyde-fixed and stained with crystal violet. Five fields/membrane were captured and the number of cells/field was measured.

[4] = tested on: PLC/PRF/5; assay: 72-hour proliferation assay, PLC/PRF/5; assay type: cell-based, human; conditions: drug 2.5 μM
Procedure: Proliferation assay: In 100 μl complete medium, 3,000 cells were seeded in wells of a 96-well plate and left overnight to allow complete attachment. The next day (at time t=0 hours), the medium was removed and replaced with 100 μl of fresh medium in the presence/absence of Sorafenib (2.5 μM), Regorafenib (2.5 μM), rhPRG4 (12.5 to 100 μg/ml). Dimethyl sulfoxide (DMSO) and PBS+0.01% Tween-20 were used as vehicles of Sorafenib/Regorafenib, and rhPRG4, respectively. Cells in triplicate wells for each cell line were fixed at t=0 hours with 4% paraformaldehyde (PFA, pH 7.6, 10 min incubation), then stained with crystal violet (CV) and thoroughly washed to remove the excess staining. After 72 hours, the cells were fixed by adding 100 μl of 4% PFA directly to the medium (2% final PFA concentration, 20 min incubation), and processed for CV staining as previously described. Then, 100 or 200 μl of 1% sodium dodecyl-sulphate were added to the wells and the plates were left under shaking until complete CV release from stained cells. Optical density was at 595 nm wavelength measured using a plate reader.

T1 sequence (P16070 with tags, fused parts or gaps limits assumed): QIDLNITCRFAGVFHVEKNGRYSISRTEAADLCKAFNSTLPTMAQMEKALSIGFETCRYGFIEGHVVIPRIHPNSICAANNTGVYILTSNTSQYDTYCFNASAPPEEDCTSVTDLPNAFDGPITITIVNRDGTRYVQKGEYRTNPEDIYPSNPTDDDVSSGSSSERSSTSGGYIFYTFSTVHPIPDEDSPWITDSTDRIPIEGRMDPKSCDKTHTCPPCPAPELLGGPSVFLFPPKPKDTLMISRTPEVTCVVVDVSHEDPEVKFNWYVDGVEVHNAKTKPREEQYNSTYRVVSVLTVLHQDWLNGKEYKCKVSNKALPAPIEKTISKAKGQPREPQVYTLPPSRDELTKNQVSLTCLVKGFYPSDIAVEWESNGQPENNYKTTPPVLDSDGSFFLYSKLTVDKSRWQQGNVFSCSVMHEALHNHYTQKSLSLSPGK

Substance: rhPRG4: full-length recombinant human PRG4 (lubricin) glycoprotein produced by CHO-M cells; residues 25-1404 of SEQ ID NO:1
- concentration-dependent binding to CD44, affinity [1]: comparable affinity to HMW HA
- percentage CD44 binding between rhPRG4, HMW HA and MMW HA-coated wells ([1]; 0.1 μg/mL coating): no significant differences
- percentage recombinant CD44 binding compared to MMW HA coated wells ([1]; 200 μg/mL coating, p<0.001): significantly higher
- percentage recombinant CD44 binding compared to HMW HA or MMW HA-coated wells ([1]; 400, 100, 20, 4 and 2 μg/mL coating, p<0.001): significantly higher
- 450 nm absorbance in the CD44-IgG1Fc group vs the IgG1Fc group ([1]; wells coated at 400 μg/mL, CD44-IgG1Fc or IgG1Fc at 1 μg/mL): significantly higher
- cell adhesion to lubricin-coated wells [2]: impaired upon silencing of CD44 expression
- migration of cells on fibronectin [3]: impairs the migration
- rhPRG4-drug synergistic effect [4]: did not respond at all
